{
  "source": "patent US8658382B2",
  "about": "“Proteins with pteridine glycosyltransferase activity and analysis method using the same” (Inje University Industry-Academic Cooperation Foundation, priority 2008, dated 2014)",
  "key": {"[1]": {"test": "Storage stability of purified recombinant BGluT", "assay_type": "physicochemical", "details": "in 20 mM Tris-HCl (pH 7.5), 30% (v/v) glycerol, aliquots at −70° C.", "from_the_text": "According to the present inventor's article (Y. K. Choi, Y. K. Hwang, Y. S. Park, Molecular cloning and disruption of a novel gene encoding UDP-glucose:tetrahydrobiopterin alpha-glucosyltransferase gene in Synechococcus sp. PCC 7942. FEBS Lett. 502 (2001) 73-78), the BGluT gene cloned in pET-28a was overexpressed in Escherichia coli strain BL21(DE3). The recombinant BGluT was homogeneously purified with Ni-NTA column (Qiagen). Briefly, the transformed E. coli was induced to overexpress the protein with 0.3 mM isopropyl thiogalactoside (IPTG). After being incubated at 37° C. for 3 hours, the harvested cells were washed with lysis buffer (50 mM sodium phosphate (pH 8.0), 300 mM NaCl, 10 mM imidazole), resuspended in the same buffer, and disrupted by sonication. The crude extract obtained after centrifugation was applied to a column of Ni-NTA gel (Qiagen) and purified according to the product manual. The recombinant BGluT protein was eluted with 250 mM imidazole in the lysis buffer. The purified protein was dialyzed against 20 mM Tris-HCl (pH 7.5), mixed with glycerol to a concentration of 30% (v/v), and stored in aliquots at −70° C. until use. The protein was stable up to 4 months. Protein concentration was determined using Bradford reagent."}, "[2]": {"test": "BGluT-catalysed glucosylation of tetrahydrobiopterin (establishing reaction conditions)", "assay_type": "biochemical", "procedure": "Unless otherwise specified, the following standard reaction conditions were used for the determination of tetrahydrobiopterin and its oxidized forms. Reactions were carried out in a final volume of 100 μl, which consisted of 50 mM Tris-HCl (pH 7.5), 10 mM MgCl2, 0.05% ascorbic acid, 500 μM UDP-glucose, 1 μg of BGluT, and an aliquot of pteridines or tissue extracts. The reaction mixture was incubated for 20 minutes at 37° C. and then mixed with 30 μl of acidic iodine solution (2% KIM % I2 in 1 N HCl). After 1 hour in the dark at room temperature, the oxidized mixture was centrifuged. […]\nThe HPLC system consisted of Gilson 321 pump, Gilson 234 autoinjector, a fluorescence detector (Schimadzu RF-10AXL), and a system software (Gilson Unipoint version 5.11). […] Pteridines were eluted isocratically at a flow rate of 1.2 ml/min and monitored at 350/450 nm (excitation/emission). Pteridine peaks were identified and quantified using authentic pteridines, which were purchased from Dr. B. Schirck's Lab (Jona, Switzerland). […]\nThe results of FIG. 1 illustrate that a selective and quantitative analysis of tetrahydrobiopterin is possible using BGluT. In order to validate the possibility quantitatively, various studies were carried out to establish a standard reaction condition suitable for analysis of biological samples. […]"}},
  "data": [
    {"molecule": "BGluT: recombinant protein from a Synechococcus gene with pteridine glucosyltransferase activity (UDP-glucose:tetrahydrobiopterin glucosyltransferase) (protein, Synechococcus PCC7942) MTAHRFLFVSTPVGPLGSGRGGGVELTLPNLAKALTQRGHQVSVLAPAGSVLPDLPLETVPGTWQSTAQSHGRATPAEIPAESVLARLWDRAHQQQADFDLILNFAYDWLPLYLTPFFKTPVAHLISMGSLSEVMDQAIATSLDRYPGSIAVHSLAQAATFPFGDRCLCIGNALDLAAYGFNPEPEPVLGWVGRIAPEKGLEDAIQAAQQAGLPLRVWGALTEPDYWQRLQQQFGDRAVSYQGFVSTDELQRGLGRCQGLLMTPKWVEAFGNVAIEALACGLPVIAYARGGPLEIIEQGKSGWLVEPDQQAALVNAIGQLSSLDRAYCRAQAEARFSLAAMGQRLEAWLLPLLSRARGF", "values": [
      {"measurement": "time the protein was stable", "setting": "[1]", "value": "up to 4 months"},
      {"measurement": "amount of BGluT above which the product is not increased any more", "setting": "[2]; 100 μl reaction mixture, 1 μM tetrahydrobiopterin, 10 minutes, FIG. 2", "value": "more than 1 μg"},
      {"measurement": "conversion of tetrahydrobiopterin to its glucosylated product", "setting": "[2]; even in the presence of dihydrobiopterin, FIG. 1", "value": "specifically convert only all of tetrahydrobiopterin to its glucosylated product"}
    ]}
  ]
}
